Source: US20180208675A1 (Novo Nordisk, published 2018)
Numbering of substitutions follows the chain as printed.

B1: mAb 4F110 (antibody, human IgG4 S228P, kappa, V domains shown)
VH: QVQLQQSGAELVKPGASVKLSCKASGYTFISYYMYWVKQRPGQGLEWIGEINPSNGDTNLNEKFKSKATLTVDKSSSTVYMQLSSLTSEDSAVYYCTRWDRFDGFVYWGQGTLVTVSA
VL: ETTVTQSPASLSMAIGGKVTIRCIISTNIDDDINWYQQKPGEPPKLLISEGNTLRPGVPSRFSSSGYGTDFVFTIENMLSEDVADYYCLQSDDLPYTFGGGTKLEIKR
B2: mAb 1F91 (antibody, V domains shown)
VH: DVQLQESGPGLVKPSQSLSLTCTVSGYSITSDYAWNWIRQFPGNKLEWMGYISYSGSTSYNPSLKSRISITRDTSKNQFFLQLNSVTTEDTATYYCARWAYDGPWGQGTLVTVSA
VL: QIVLSQSPALLSASPGEKVTMTCRASSSVSHMHWYQQKPGSSPKPWIYATSNLASGVPARFSGSGSGTSYSLTITRVEAEDAATYYCQQWSSNPFTFGSGTKLEIKR
B3: mAb 2F3 (antibody, V domains shown)
VH: QVQLKQSGPGLVQPSQSLSITCTVSGFSLSSYGVHWVRQSPGKGLEWLGVIWRGGSTDFNAAFMSRVSFTKDNSKSQVFFKMNSLQADDTAIYYCAKNSHGNYVGYAMDYWGQGTSVTVSS
VL: DIVMTQSQKFMSTTVGDKVSIPCKASENVGAAVAWYQQKPGQSPTLLIYSASNRYTGIPDRFTGSGSGTDFTLTIRTVQSEDLADYFCQQYTNYPTFGGGTKLEIKR
B4: mAb 2F22 (antibody, V domains shown)
VH: B3 VH with S30T, S31N, G49A, T57I, F59Y, V67L, F69I
VL: GIVMTQSQKFMSTTVGDRVSITCKASQSVGPAVAWYQQKPGQSPKLLIYSASNRYTGVPDRFTGSGSGADFTLTISNLHSEDLADYFCQQYTSYPTFGGGTKLEIKR
B5: mAb 2F35 (antibody, V domains shown)
VH: EVQLQQSGAELVRPGALVKLSCKASGFNIKDYYIHWVKQRPEQGLEWIGWIDPENGNTIFDPKFQGRASITADTSSNTAYLQLSSLTSEDTAVYYCAGRWYAMDYWGQGTSVTVSS
VL: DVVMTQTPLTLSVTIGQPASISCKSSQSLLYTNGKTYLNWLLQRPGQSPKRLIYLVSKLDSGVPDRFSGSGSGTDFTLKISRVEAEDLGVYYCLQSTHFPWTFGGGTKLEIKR
B6: mAb 2F45 (antibody, V domains shown)
VH: B3 VH with T21S, S30T, S31G, V37I, T57I, F59Y, V67L, F69I
VL: B4 VL with G1D, S28N, P31T, K45E, G57R, A69T, L78M, H79Q
B7: mAb 2021 (antibody, human IgG4 S228P, kappa, V domains shown)
VH: EVQLVESGGGLVKPGGSLRLSCAASGFTFSNYAMSWVRQTPEKRLEWVATISRSGSYSYFPDSVQGRFTISRDNAKNSLYLQMNSLRAEDTAVYYCARLGGYDEGDAMDSWGQGTTVTVSS
VL: DIVMTQTPLSLSVTPGQPASISCKSSQSLLESDGKTYLNWYLQKPGQSPQLLIYLVSILDSGVPDRFSGSGSGTDFTLKISRVEAEDVGVYYCLQATHFPQTFGGGTKVEIKR
B8: Fab 0094 (Fab fragment of mAb 2007) (Fab, V domains shown)
VH: B7 VH with T40A, E42G, R44G, A49S, F60Y, Q65K
VL: B7 VL
notes: KPI-2 specific
B9: Fab 0088 (Fab fragment of mAb 2021) (Fab, V domains shown)
VH: B7 VH
VL: B7 VL
notes: free C-terminal cysteine; KPI-2 specific
B10: Fab 0313 (Fab fragment of mAb 2000) (Fab, V domains shown)
VH: B7 VH with T40A, E42G, R44G, A49S, F60Y, P61A, Q65K
VL: B7 VL
notes: Fab of the initial grafted HzTFPI4F36; KPI-2 specific
B11: Fab 0089 (Fab fragment of mAb 4F110) (Fab, V domains shown)
VH: B1 VH
VL: B1 VL
notes: Chimeric mouse/human Fab; HC truncated after the hinge cysteine; KPI-3 specific

The binders below were run against T1, human TFPI alpha (full-length TFPIα) (human, UniProt P10646 29-304) (assay: cell-based or functional assay).

For B1, which “lag time (min), 200 nM mAb (2 x 100 nM), FVIII-neutralised plasma + 20 nM TFPIα” value (“lag time (min), 200 nM mAb (2 x 100 nM)” below) is on record?
Its value is 0 min.

And the “thrombin peak (nM), 200 nM mAb (2 x 100 nM), FVIII-neutralised plasma + 20 nM TFPIα” value (from here on “thrombin peak (nM), 200 nM mAb”)?
Its value is 0 nM.

And the “ttPeak (min), 200 nM mAb (2 x 100 nM), FVIII-neutralised plasma + 20 nM TFPIα” value (“ttPeak (min), 200 nM mAb (2 x 100 nM)” for short)?
The value was 0 min.

With B2 as the binder, how does the “lag time (min), 200 nM mAb (2 x 100 nM)” value read?
Its value is 0 min.

What about the “thrombin peak (nM), 200 nM mAb” value of the same binder?
Its value is 0 nM.

And the “ttPeak (min), 200 nM mAb (2 x 100 nM)” value?
The value was 0 min.

For B3, which “lag time (min), 200 nM mAb (2 x 100 nM)” value is on record?
The value was 5.8 min.

What about the “thrombin peak (nM), 200 nM mAb” value of the same binder?
Its value is 20.9 nM.

What about the “ttPeak (min), 200 nM mAb (2 x 100 nM)” value of the same binder?
Its value is 14.6 min.

Which results are given for B4?
lag time (min), 200 nM mAb (2 x 100 nM), FVIII-neutralised plasma + 20 nM TFPIα: 5.1 min; thrombin peak (nM), 200 nM mAb (2 x 100 nM), FVIII-neutralised plasma + 20 nM TFPIα: 23.7 nM; ttPeak (min), 200 nM mAb (2 x 100 nM), FVIII-neutralised plasma + 20 nM TFPIα: 13.6 min

What does the source list for B5?
lag time (min), 200 nM mAb (2 x 100 nM), FVIII-neutralised plasma + 20 nM TFPIα: 0 min; thrombin peak (nM), 200 nM mAb (2 x 100 nM), FVIII-neutralised plasma + 20 nM TFPIα: 0 nM; ttPeak (min), 200 nM mAb (2 x 100 nM), FVIII-neutralised plasma + 20 nM TFPIα: 0 min

For B6, which “lag time (min), 200 nM mAb (2 x 100 nM)” value is on record?
The value was 9 min.

The binders below were run against endogenous TFPI of normal human plasma (human, UniProt P10646 29-304, limits assumed) (assay: cell-based or functional assay).

Which results are given for B7?
thrombin peak (nM) at 6.25 nM, FVIII-neutralised plasma, endogenous TFPI: 113 nM; thrombin peak (nM) at 12.5 nM, FVIII-neutralised plasma, endogenous TFPI: 114 nM; thrombin peak (nM) at 25.0 nM, FVIII-neutralised plasma, endogenous TFPI: 116 nM; thrombin peak (nM) at 50.0 nM, FVIII-neutralised plasma, endogenous TFPI: 118 nM; thrombin peak (nM) at 100 nM, FVIII-neutralised plasma, endogenous TFPI: 118 nM

Which “thrombin peak (nM) at 6.25 nM, FVIII-neutralised plasma, endogenous TFPI” value does the source give for B8 here?
Its value is 35.9 nM.

What about the “thrombin peak (nM) at 12.5 nM, FVIII-neutralised plasma, endogenous TFPI” value of the same binder?
The value was 45 nM.

What about the “thrombin peak (nM) at 25.0 nM, FVIII-neutralised plasma, endogenous TFPI” value of the same binder?
Its value is 60.2 nM.

What about the “thrombin peak (nM) at 50.0 nM, FVIII-neutralised plasma, endogenous TFPI” value of the same binder?
The value was 73.9 nM.

And the “thrombin peak (nM) at 100 nM, FVIII-neutralised plasma, endogenous TFPI” value?
The value was 74.1 nM.

What does the source list for B9?
thrombin peak (nM) at 6.25 nM, FVIII-neutralised plasma, endogenous TFPI: 96.8 nM; thrombin peak (nM) at 12.5 nM, FVIII-neutralised plasma, endogenous TFPI: 98.1 nM; thrombin peak (nM) at 25.0 nM, FVIII-neutralised plasma, endogenous TFPI: 102 nM; thrombin peak (nM) at 50.0 nM, FVIII-neutralised plasma, endogenous TFPI: 101 nM; thrombin peak (nM) at 100 nM, FVIII-neutralised plasma, endogenous TFPI: 87.7 nM

Target: T1, human TFPI alpha (full-length TFPIα)
Assay: cell-based or functional assay
Remark: another data set of the same source

Which “thrombin peak (nM) at 6.25 nM, FVIII-neutralised plasma + 2 nM TFPIα” value does the source give for B7 here?
The value was 48.9 nM.

What about the “thrombin peak (nM) at 12.5 nM, FVIII-neutralised plasma + 2 nM TFPIα” value of the same binder?
The value was 61.7 nM.

What about the “thrombin peak (nM) at 25.0 nM, FVIII-neutralised plasma + 2 nM TFPIα” value of the same binder?
The value was 68.4 nM.

And the “thrombin peak (nM) at 50.0 nM, FVIII-neutralised plasma + 2 nM TFPIα” value?
Its value is 73.4 nM.

And the “thrombin peak (nM) at 100 nM, FVIII-neutralised plasma + 2 nM TFPIα” value?
The value was 58.6 nM.

B8 was tested. Which “thrombin peak (nM) at 6.25 nM, FVIII-neutralised plasma + 2 nM TFPIα” value did it give?
The value was 5.9 nM.

What about the “thrombin peak (nM) at 12.5 nM, FVIII-neutralised plasma + 2 nM TFPIα” value of the same binder?
Its value is 10.6 nM.

And the “thrombin peak (nM) at 25.0 nM, FVIII-neutralised plasma + 2 nM TFPIα” value?
The value was 14.3 nM.

And the “thrombin peak (nM) at 50.0 nM, FVIII-neutralised plasma + 2 nM TFPIα” value?
The value was 18.9 nM.

What about the “thrombin peak (nM) at 100 nM, FVIII-neutralised plasma + 2 nM TFPIα” value of the same binder?
Its value is 20.3 nM.

With B9 as the binder, how does the “thrombin peak (nM) at 6.25 nM, FVIII-neutralised plasma + 2 nM TFPIα” value read?
The value was 38.4 nM.

And the “thrombin peak (nM) at 12.5 nM, FVIII-neutralised plasma + 2 nM TFPIα” value?
The value was 64.2 nM.

What about the “thrombin peak (nM) at 25.0 nM, FVIII-neutralised plasma + 2 nM TFPIα” value of the same binder?
Its value is 69.8 nM.

And the “thrombin peak (nM) at 50.0 nM, FVIII-neutralised plasma + 2 nM TFPIα” value?
Its value is 67.7 nM.

What about the “thrombin peak (nM) at 100 nM, FVIII-neutralised plasma + 2 nM TFPIα” value of the same binder?
The value was 48.1 nM.

The binders below were run against T1, human TFPI alpha (full-length TFPIα) (assay: SPR (Biacore T200), Fab captured on Human Fab Binder, TFPIα in solution, 1:1 fit).
Text: Binding interaction analysis was obtained by Surface Plasmon Resonance in a Biacore T200 instrument. Human Fab Binder (Human Fab Capture Kit, GE Healthcare) was immobilized to a series S CM4 sensor chip (GE Healthcare) in flow-cells 1-4 at 10000 response units (RU) using the amine coupling protocol available within the Biacore T-200 control software (GE Healthcare) and the reagents provided with the Amine Coupling Kit (GE Healthcare).The relevant Fab fragment or Fab-Fab conjugate was captured in flow-cell 2, 3 or 4 at a fixed concentration. Different concentrations of TFPI were tested by diluting TFPI in the running buffer (10 mM Hepes, pH 7.4, 300 mM NaCl, 5 mM CaCl₂, 0.05% Surfactant P20, 1 mg/ml BSA). Each sample was assayed using 300 seconds of contact time followed by 600 seconds of dissociation time at 50 μl/min flow rate. A buffer blank was also assayed. The sensor surface was regenerated with 10 mM Glycine pH 2.1 with two cycles each of 30 seconds at 50 μl/min flow rate.
Biacore T200 Evaluation software was used to analyse the data. Determination of binding constants (kₒₙ, koff, KD) was obtained assuming a 1:1 interaction of TFPI and the Fab variant or Fab-Fab conjugate of interest.

Which results are given for B8?
Kd: 4.4 nM; koff: 0.00066 s⁻¹; kon: 150000 M⁻¹ s⁻¹

Which results are given for B9?
Kd: 0.06 nM; koff: 0.0001 s⁻¹; kon: 1.7e+06 M⁻¹ s⁻¹

What does the source list for B10?
Kd: 42 nM; koff: 0.0021 s⁻¹; kon: 49000 M⁻¹ s⁻¹

With B11 as the binder, how does the Kd read?
The Kd was 0.11 nM.

And the koff?
Its koff is 0.00057 s⁻¹.

What about the kon of the same binder?
The kon was 5e+06 M⁻¹ s⁻¹.
